This experiment addresses T1, Centromere protein F (CENPF) (human, UniProt P49454 1-3111, limits assumed).
T1 construct: also called CENF; PRO 1779
Nature of the experiment: co-immunoprecipitation.

T1 sequence (P49454 1-3111 limits assumed): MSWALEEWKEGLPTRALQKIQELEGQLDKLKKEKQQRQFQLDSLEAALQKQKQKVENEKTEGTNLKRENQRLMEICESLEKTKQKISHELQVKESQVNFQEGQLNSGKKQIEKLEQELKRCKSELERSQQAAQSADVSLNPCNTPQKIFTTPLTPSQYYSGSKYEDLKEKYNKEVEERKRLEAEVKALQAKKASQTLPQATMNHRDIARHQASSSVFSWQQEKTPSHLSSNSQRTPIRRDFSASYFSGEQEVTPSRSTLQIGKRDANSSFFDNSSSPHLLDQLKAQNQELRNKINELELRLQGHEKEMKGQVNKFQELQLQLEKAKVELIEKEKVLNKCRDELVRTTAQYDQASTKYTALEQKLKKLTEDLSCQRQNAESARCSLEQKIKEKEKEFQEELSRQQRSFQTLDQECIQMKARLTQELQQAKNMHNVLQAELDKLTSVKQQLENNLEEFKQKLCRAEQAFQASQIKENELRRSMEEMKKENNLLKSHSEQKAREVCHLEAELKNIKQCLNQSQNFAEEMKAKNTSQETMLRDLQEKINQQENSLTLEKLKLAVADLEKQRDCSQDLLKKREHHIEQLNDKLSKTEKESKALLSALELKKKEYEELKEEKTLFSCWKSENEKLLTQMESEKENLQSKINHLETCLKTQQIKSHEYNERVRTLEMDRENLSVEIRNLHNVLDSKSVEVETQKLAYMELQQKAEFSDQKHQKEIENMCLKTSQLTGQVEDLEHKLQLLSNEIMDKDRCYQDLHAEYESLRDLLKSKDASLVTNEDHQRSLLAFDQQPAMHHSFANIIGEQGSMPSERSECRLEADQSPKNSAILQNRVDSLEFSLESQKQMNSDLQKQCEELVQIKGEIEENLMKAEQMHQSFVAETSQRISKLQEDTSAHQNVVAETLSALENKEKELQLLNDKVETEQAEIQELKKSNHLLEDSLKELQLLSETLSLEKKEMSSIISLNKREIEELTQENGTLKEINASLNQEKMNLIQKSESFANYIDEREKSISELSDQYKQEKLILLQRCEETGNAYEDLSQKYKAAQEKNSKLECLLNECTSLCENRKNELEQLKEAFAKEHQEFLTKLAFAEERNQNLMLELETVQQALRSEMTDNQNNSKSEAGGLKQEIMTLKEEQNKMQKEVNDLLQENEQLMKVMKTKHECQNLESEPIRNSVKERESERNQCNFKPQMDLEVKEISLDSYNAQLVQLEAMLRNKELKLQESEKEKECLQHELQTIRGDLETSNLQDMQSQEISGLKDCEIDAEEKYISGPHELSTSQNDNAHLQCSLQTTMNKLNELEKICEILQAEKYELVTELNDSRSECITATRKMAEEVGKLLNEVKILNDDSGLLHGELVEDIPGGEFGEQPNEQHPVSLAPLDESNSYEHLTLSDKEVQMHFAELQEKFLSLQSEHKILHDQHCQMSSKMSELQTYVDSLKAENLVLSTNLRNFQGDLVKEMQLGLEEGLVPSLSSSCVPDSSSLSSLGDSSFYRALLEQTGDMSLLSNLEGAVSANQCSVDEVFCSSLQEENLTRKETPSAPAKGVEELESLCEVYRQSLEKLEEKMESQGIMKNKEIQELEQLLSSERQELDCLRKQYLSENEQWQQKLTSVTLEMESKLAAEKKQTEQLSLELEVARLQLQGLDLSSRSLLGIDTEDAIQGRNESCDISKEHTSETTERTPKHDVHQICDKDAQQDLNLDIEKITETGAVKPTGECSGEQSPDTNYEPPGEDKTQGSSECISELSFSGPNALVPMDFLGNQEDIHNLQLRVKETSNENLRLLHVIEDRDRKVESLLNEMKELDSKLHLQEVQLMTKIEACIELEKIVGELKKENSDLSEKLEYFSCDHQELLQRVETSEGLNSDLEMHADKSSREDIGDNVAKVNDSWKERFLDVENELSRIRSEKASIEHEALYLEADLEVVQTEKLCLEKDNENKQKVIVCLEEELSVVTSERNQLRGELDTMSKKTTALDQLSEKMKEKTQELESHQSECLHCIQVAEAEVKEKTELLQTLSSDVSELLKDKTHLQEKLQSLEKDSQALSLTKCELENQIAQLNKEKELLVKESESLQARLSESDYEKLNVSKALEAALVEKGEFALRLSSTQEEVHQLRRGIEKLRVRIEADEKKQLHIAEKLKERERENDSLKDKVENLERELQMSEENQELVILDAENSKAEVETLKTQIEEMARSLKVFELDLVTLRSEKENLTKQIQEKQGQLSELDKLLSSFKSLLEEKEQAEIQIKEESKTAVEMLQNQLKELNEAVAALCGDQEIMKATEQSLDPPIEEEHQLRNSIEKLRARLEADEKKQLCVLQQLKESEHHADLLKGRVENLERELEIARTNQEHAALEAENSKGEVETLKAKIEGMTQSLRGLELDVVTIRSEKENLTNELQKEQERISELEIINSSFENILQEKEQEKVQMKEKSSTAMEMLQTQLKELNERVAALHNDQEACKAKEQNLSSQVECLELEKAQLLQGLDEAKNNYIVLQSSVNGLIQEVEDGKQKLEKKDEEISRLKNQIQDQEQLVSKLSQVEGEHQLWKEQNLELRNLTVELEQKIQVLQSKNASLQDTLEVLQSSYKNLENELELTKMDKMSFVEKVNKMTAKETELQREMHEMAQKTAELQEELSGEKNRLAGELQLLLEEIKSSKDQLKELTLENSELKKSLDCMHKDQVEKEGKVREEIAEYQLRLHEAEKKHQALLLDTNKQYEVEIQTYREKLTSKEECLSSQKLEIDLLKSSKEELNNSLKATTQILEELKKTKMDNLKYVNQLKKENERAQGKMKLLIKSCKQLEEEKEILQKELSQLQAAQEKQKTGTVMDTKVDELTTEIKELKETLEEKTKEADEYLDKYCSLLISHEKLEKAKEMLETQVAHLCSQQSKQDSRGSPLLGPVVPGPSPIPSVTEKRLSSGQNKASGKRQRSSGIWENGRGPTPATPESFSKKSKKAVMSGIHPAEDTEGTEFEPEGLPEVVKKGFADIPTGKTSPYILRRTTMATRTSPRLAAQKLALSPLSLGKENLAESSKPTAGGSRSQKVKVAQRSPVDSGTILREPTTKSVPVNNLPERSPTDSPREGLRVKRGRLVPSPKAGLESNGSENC

B1: Forkhead box protein M1 (FOXM1) (other)
chain: MKTSPRRPLILKRRRLPLPVQNAPSETSEEEPKRSPAQQESNQAEASKEVAESNSCKFPAGIKIINHPTMPNTQVVAIPNNANIHSIITALTAKGKESGSSGPNKFILISCGGAPTQPPGLRPQTQTSYDAKRTEVTLETLGPKPAARDVNLPRPPGALCEQKRETCDGEAAGCTINNSLSNIQWLRKMSSDGLGSRSIKQEMEEKENCHLEQRQVKVEEPSRPSASWQNSVSERPPYSYMAMIQFAINSTERKRMTLKDIYTWIEDHFPYFKHIAKPGWKNSIRHNLSLHDMFVRETSANGKVSFWTIHPSANRYLTLDQVFKQQQKRPNPELRRNMTIKTELPLGARRKMKPLLPRVSSYLVPIQFPVNQSLVLQPSVKVPLPLAASLMSSELARHSKRVRIAPKVLLAEEGIAPLSSAGPGKEEKLLFGEGFSPLLPVQTIKEEEIQPGEEMPHLARPIKVESPPLEEWPSPAPSFKEESSHSWEDSSQSPTPRPKKSYSGLRSPTRCVSEMLVIQHRERRERSRSRRKQHLLPPCVDEPELLFSEGPSTSRWAAELPFPADSSDPASQLSYSQEVGGPFKTPIKETLPISSTPSKSVLPRTPESWRLTPPAKVGGLDFSPVQTSQGASDPLPDPLGLMDLSTTPLQSAPPLESPQRLLSSEPLDLISVPFGNSSPSDIDVPKPGSPEPQVSGLAANRSLTEGLVLDTMNDSLSKILLDISFPGLDEDPLGPDNINWSQFIPELQ
notes: also called FKHL16; FOXM1B
On to B1, for which the binding result is given as “no binding”.

The record behind these values is patent US20170051281A1 (TRUSTEES OF COLUMBIA UNIVERSITY IN THE CITY OF NEW YORK, published 2017).
